Assays:
Format in all cases: cell-based, human
STAT3 [1] = assay: STAT3 phosphorylation in Panc1 cells by western blot; settings: addition of RNLS
Excerpt: FIG. 27A through FIG. 27E are a series of images and charts showing the interaction between RNLS and STAT3, and the mechanistic model of inhibition by m28-RNLS. FIG. 27A is an image showing activation of STAT3 by RNLS in Panc1 cells; Panc1 cells in culture treated with either BSA or RNLS, and STAT3 phosphorylation assessed by western blot; p-Ser^727-STAT3: phosphorylation at serine 727, p-Y^705-STAT3: phosphorylation at tyrosine 705; representative study. FIG. 27B is a chart depicting the quantification of STAT3 phosphorylation with RNLS; signals normalized to total STAT3; n=3, *=P<0.05. […] FIG. 27D is a chart showing the quantification of STAT3 phosphorylation with m28-RNLS; signals normalized to GAPDH loading control; n=3, *=P<0.05. FIG. 27E depicts the proposed mechanistic model for antitumor activity of m28-RNLS.

[2] = tested on: melanoma cells (A375.S2, MeWo, SkMe15, and SkMe128); assay: Survival of serum-starved melanoma cells with rRNLS, WST-1; settings: 30 ug/ml, 72 hrs, compared to BSA
Description: FIG. 18A and FIG. 18B are two charts showing that RNLS overexpression favors cancer cell survival.
For additional studies, cell viability was determined using WST-1 reagent (Roche Diagnostics, Indianapolis, Ind., USA) according to the manufacturers' instruction. Absorbances were read using a microplate reader (Power Waves XS, BioTek Instruments, Winooski, Vt., USA).

STAT3 [3] = assay: STAT phosphorylation in HK-2 cells treated with RNLS
MiaPaCa2 cells = assay: FACS cell cycle analysis of MiaPaCa2 cells treated with rRNLS; settings: 30 μg/ml, compared to BSA
Description: For cell cycle analysis, cultured cells were dissociated using 10 mM EDTA, fixed with ice-cold 70% ethanol, digested with RNAse A, and stained with propidium iodide. Propidium staining was detected using a BD FACSCalibur flow cytometer (BD Biosciences, San Jose, Calif., USA), and analyzed using CellQuest software.

B1: rRNLS: Recombinant human RNLS (renalase) (protein)
chain: ALLRRQTSGPLYLAVWDKAEDSGGRMTTACSPHNPQCTADLGAQYITCTPHYAKKHQRFYDELLAYGVLRPLSSPIEGMVMKEGDCNFVAPQGISSIIKHYLKESGAEVYFRHRVTQINLRDDKWEVSKQTGSPEQFDLIVLTMPVPEILQLQGDITTLISECQRQQLEAVSYSSRYALGLFYEAGTKIDVPWAGQYITSNPCIRFVSIDNKKRNIESSEIGPSLVIHTTVPFGVTYLEHSIEDVQELVFQQLENILPGLPQPIATKCQKWRHSQVTNAAANCPGQMTLHHKPFLACGGDGFTQSNFDGCITSALCVLEALKNYI
For B1, the “phosphorylated STAT3 (p-Ser727-STAT3 and p-Y705-STAT3) in Panc1” value (STAT3 [1]) was “rapid increase”, the “survival of serum-starved melanoma cells” value [2] was “markedly increased the survival” and the “increase in STAT3 phosphorylation at serine 727 (p-Ser727-STAT3)” value (STAT3 [3]) was 2 fold. For the same molecule, the “increase in STAT3 phosphorylation at tyrosine 705 (p-Y705-STAT3)” value (STAT3 [3]) was 4 fold and the cell cycle progression (MiaPaCa2 cells) was “no effect”.
